Data taken from CN114790245A (CHENGDU KANGHONG BIOLOGICAL TECH CO LTD, dated 2022).
Positions count from the first letter of the chain named.

B1: KH09 (antibody, human IgG4 S228P, kappa, V domains shown)
VH: EVQLVESGGALVKPGGSLRLSCAASGFNIKDTYIFWVRQMPRKGLEWIGRIDPENDNTKYDPKIQGKATITADTSTDTAYMELSSLTSEDTAVYYCAKGGGLFAYWGQGTLVTVSS
VL: DIQMTQSPSAMSASVGDRVTITCEASHDINNYIAWYQQKPGKAPKLLIYYTSTLQSGVPSRFSGSGSGTDFTFTISSLQPEDIATYYCLQYDNLFTFGQGTKVEIKR
B2: KH21 (antibody, V domains shown)
VH: EVQLQQSGAELVKPGASVKLSCTGSGFNIKDIYMFWVKQRPEQGLEWIGRIDPENGNIKYDPKFQGKATITAETSSNTVYLQLNSLTSEDTAVYYCSRGGGLFAYWGQGTLVTVSA
VL: DIQMTQSPSSLSASLGGKVTITCKASQDINKYIAWYQHKPGKGPRLLIHYTSTLQPGIPSRFSGSGSGSDYSFSISTLEPEDIATYYCLQYDDLWTFGGGTKLEIK
B3: KH19 (antibody, V domains shown)
VH: EVQLQQSGAEVVRPGASVKLSCKPSGFNIKDYYMFWLRQRPDQGLEWIGRIDPENGNTVYDPRFQDRASITAVTSSNTAFLQVNSLTSEDTAVYYCARAGSIPSYWGQGTLVTVSA
VL: DIQMTQSPSSLSASLGDKITITCKASQDINKYIAWYQHKPGKGPRLLIHYTSSLHQDIPSRFSGSGSGRDYSFSISNLEPEDFAIYYCLQYDDLWTFGGGTKVEIK
B4: KH18 (antibody, human IgG4 S228P, kappa, V domains shown)
VH: QVQLLESGAELVRPGSSVKISCKASGYAFTNYWMHWVKQRPGQGLEWIGAIYPGDSDTSYNQKFKGKATLTADESSSTAYMQLSSLRSEDSAVYSCARERAYYRYDEDFDYWGQGTTVTVSS
VL: DIQMTQSPSSLSASVGDRVTITCSATSIINSNYFHWYQQKPGKAPKLLIYRTSNLASGVPSRFSGSGSGTDFTFTISSLQPEDIATYYCQQGSSLPRTFGGGTKLEIKR
B5: KH20 (antibody, V domains shown)
VH: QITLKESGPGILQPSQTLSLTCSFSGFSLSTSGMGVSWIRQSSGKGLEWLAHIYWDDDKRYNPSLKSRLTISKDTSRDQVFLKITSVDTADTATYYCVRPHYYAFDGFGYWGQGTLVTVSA
VL: DIKMTQSPSSMSASPGERVTITCKASQDINSYLSWFQQKSGKFPKTLIYRANRLVDGVASRFSGSGSGQDYSLTISSLDYEDMGIYYCVQYDEFPLTFGAGTKLELK
B6: KH11 (antibody, human IgG4 S228P, kappa)
heavy: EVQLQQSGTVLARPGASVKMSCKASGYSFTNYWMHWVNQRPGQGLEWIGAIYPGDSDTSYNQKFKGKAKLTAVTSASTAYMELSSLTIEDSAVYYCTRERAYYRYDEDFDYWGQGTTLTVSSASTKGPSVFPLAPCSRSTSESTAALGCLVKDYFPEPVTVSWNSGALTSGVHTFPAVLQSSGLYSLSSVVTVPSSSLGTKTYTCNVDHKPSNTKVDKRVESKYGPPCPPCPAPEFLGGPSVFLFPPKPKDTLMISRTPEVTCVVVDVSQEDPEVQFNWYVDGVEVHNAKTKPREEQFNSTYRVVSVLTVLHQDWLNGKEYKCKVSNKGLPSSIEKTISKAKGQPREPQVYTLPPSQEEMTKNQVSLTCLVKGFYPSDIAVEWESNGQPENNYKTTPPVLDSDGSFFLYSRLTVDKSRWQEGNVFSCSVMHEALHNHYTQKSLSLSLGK
light: EIVLTQSPTTMAASPGEKITITCSATSIINSNYFHWYQQKPGFSPKLLIYRTSNLASGVPARFSGSGSGTSYSLTIGTMEAEDVATYYCQQGSSLPRTFGGGTKLEIKRTVAAPSVFIFPPSDEQLKSGTASVVCLLNNFYPREAKVQWKVDNALQSGNSQESVTEQDSKDSTYSLSSTLTLSKADYEKHKVYACEVTHQGLSSPVTKSFNRGEC
B7: KH03 (antibody, human IgG4 S228P, kappa)
heavy: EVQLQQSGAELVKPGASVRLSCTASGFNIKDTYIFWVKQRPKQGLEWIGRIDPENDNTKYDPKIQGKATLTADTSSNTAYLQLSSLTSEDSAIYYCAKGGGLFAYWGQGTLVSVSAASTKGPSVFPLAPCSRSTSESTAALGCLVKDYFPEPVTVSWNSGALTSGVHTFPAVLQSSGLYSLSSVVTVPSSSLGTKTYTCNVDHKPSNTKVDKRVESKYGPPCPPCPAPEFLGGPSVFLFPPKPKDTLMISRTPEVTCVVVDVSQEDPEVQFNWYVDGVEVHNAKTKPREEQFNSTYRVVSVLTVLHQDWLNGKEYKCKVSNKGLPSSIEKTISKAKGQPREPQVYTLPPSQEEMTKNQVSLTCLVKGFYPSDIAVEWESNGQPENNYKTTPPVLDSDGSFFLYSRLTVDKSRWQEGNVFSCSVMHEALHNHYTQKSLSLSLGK
light: DIQMTQSPSAMSASVGDRVTITCEASHDINNYIAWYQQKPGKAPKLLIYYTSTLQSGVPSRFSGSGSGTEFTLTISNLQPEDFATYYCLQYDNLFTFGQGTKVEIKRTVAAPSVFIFPPSDEQLKSGTASVVCLLNNFYPREAKVQWKVDNALQSGNSQESVTEQDSKDSTYSLSSTLTLSKADYEKHKVYACEVTHQGLSSPVTKSFNRGEC
B8: KH04 (antibody, human IgG4 S228P, kappa)
heavy: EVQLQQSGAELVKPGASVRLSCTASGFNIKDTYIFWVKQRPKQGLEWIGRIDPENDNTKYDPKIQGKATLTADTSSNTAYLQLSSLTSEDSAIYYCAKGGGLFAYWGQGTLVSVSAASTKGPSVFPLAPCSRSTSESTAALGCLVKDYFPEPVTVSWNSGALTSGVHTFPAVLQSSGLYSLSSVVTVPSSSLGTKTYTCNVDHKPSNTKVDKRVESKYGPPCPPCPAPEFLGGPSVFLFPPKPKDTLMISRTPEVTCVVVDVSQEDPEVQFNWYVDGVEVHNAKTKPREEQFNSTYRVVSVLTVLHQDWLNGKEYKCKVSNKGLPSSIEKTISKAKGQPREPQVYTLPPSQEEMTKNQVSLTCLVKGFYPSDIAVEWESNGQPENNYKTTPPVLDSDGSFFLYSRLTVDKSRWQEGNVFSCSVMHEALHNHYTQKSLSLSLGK
light: B7 light with A10S, M11L
B9: KH01 (antibody, human IgG4 S228P, kappa, V domains shown)
VH: EVQLHQSGAELVKPGASVRLSCTASGFNIKDTYIFWVKQRPEQGLEWIGRIDPENDNTKFDPKIQGKATLTADTSSNTAYLQLGSLTSEDSAIYYCAKGGGLFAYWGQGTLVSVSA
VL: DIQMTQSPSSLSASLGGKVTITCKASHDINKYIAWYQHKPGSGPRLLIHFTSTLQSDIPSRFSGSGSGRDYSFSISNLEPEDIATYYCLQYDNLFTFGGGTKLEIKR
B10: KH05 (antibody, human IgG4 S228P, kappa, V domains shown)
VH: B9 VH with H5Q, E42K, F60Y, G84S
VL: B1 VL with A10S, M11L, K42Q, A43P, D70E, F73L, S77N, I83F
B11: KH02 (antibody, human IgG4 S228P, kappa, V domains shown)
VH: B9 VH with H5Q, E42K, F60Y, G84S
VL: B9 VL with A13T, K24E, K31N, S42K, F50Y, D57G, R69K
B12: KH07 (antibody, human IgG4 S228P, kappa, V domains shown)
VH: B9 VH with H5Q, E42K, F60Y, G84S
VL: B1 VL with K42Q, A43P
B13: KH12 (antibody, human IgG1, kappa, V domains shown)
VH: QVQLVQSGAEVKKPGASVKVSCKASGYTFTNYWMHWVRQAPGQGLEWMGAIYPGDSDTSYNQKFKGRVTMTRDTSTSTVYMELSSLRSEDTAVYYCARERAYYRYDEDFDYWGQGTLVTVSS
VL: EIVMTQSPPTLSLSPGERVTLSCSATSIINSNYFHWYQQKPGQAPRLLIYRTSNLASGIPARFSGSGSGTDFTLTISSLQPEDFAVYYCQQGSSLPRTFGGGTKLEIKR
B14: KH15 (antibody, human IgG4 S228P, kappa, V domains shown)
VH: EVQLVQSGAEVKKPGATVKISCKVSGYTFTNYWMHWVQQAPGKGLEWMGAIYPGDSDTSYNQKFKGRVTITADTSTDTAYMELSSLRSEDTAVYYCTRERAYYRYDEDFDYWGQGTLVTVSS
VL: B13 VL
B15: KH14 (antibody, human IgG1, kappa, V domains shown)
VH: B13 VH
VL: EIVLTQSPAIMSASPGERVTMTCSATSIINSNYFHWYQQKPGTSPRRWIYRTSNLASGVPARFSGSGSGTDYSLTISSMEPEDAATYYCQQGSSLPRTFGGGTKLEIKR
B16: KH16 (antibody, human IgG4 S228P, kappa, V domains shown)
VH: B14 VH
VL: B4 VL
B17: KH13 (antibody, human IgG1, kappa, V domains shown)
VH: B13 VH
VL: B4 VL
B18: KH10 (antibody, human IgG1, kappa)
heavy: not shown
light: B6 light

target: T1, 血浆激肽释放酶(plasma kallikrein,PK) (human, UniProt P03952 20-638); test: cell-based or functional assay
T1 sequence (P03952 20-638 limits assumed): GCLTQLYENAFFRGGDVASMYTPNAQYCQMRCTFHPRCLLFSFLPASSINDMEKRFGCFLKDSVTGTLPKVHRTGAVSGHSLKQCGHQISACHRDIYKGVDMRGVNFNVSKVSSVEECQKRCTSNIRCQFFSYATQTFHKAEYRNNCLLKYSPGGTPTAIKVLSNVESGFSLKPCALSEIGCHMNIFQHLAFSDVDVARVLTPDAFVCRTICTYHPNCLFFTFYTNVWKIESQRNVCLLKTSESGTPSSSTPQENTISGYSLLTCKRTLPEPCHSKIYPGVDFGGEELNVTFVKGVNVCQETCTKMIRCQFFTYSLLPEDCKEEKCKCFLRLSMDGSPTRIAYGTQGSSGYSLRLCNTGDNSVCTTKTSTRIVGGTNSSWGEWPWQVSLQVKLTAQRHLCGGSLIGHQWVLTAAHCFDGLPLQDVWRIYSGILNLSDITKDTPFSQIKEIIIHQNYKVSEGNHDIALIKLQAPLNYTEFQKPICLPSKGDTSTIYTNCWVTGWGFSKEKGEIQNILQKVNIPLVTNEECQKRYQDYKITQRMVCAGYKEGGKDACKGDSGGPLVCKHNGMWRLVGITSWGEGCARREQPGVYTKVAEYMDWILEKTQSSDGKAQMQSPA

IC50(nM), PK activity in human plasma activated with Factor XIIa (H-Pro-Phe-Arg-AMC) | Binder
0.764 nM | B1
1.29 nM | B2
0.93 nM | B3
0.419 nM | B4
1.09 nM | B5
0.103 nM | B6
0.949 nM | B7
0.987 nM | B8
0.753 nM | B9
0.921 nM | B10
0.52 nM | B11
0.863 nM | B12

target: T1, 血浆激肽释放酶(plasma kallikrein,PK); test: cell-based or functional assay; remark: another data set of the same source

IC50(nM), PK enzyme activity on H-Pro-Phe-Arg-AMC (fluorescence) | Binder
0.174 nM | B13
0.224 nM | B14
0.398 nM | B15
0.82 nM | B2
0.87 nM | B3
0.23 nM | B16
0.221 nM | B17
1.1 nM | B5
0.188 nM | B6
0.227 nM | B18
0.297 nM | B9
0.235 nM | B11
